Experimental data taken from patent publication US11672867B2, “Protein-templated self-assembly of a covalent polymer network for intracellular trafficking and traceless release” (University of Massachusetts, priority 2017, dated 2023).

How the values were obtained:
[1] = Dynamic light scattering particle size; format: physicochemical; conditions: 1 mg/mL, phosphate buffer pH 7.4
Procedure: (§1) Dynamic light scattering (DLS) and zeta potential measurements were performed using a Malvern Nanozetasizer-ZS. All samples were diluted with phosphate buffer pH 7.4 to adjust final concentration to 1 mg/mL.

HeLa cells = assay: Cell viability with alamarBlue assay; format: cell-based, Human; conditions: 72 h
Procedure: Human cervical carcinoma (HeLa) cells were cultured in T75 cell culture flask containing Dulbecco's Modified Eagle Medium/Nutrient Mixture F-12 (DMEM/F12) in a humidified incubator with 5% CO2 at 37° C. Culture media was supplemented with 10% fetal bovine serum (FBS), 1% L-glutamine and 1% antibiotic-antimycotic (100 units/mL of penicillin, 100 μg/mL of streptomycin, and 0.25 μg/mL of Amphotericin B).
HeLa cells were seeded into 96-well tissue culture plates at a density of 5000 cells/well/100 μL sample and incubated at 37° C. After 24 h, culture media was replaced and cells were treated with different concentrations of protein-polymer conjugates and control protein samples (0.1 mg/mL to 2 mg/mL protein concentration) in 100 μL media. All samples were incubated for 6 h at 37° C., then the media was replaced and incubated for another 66 h at 37° C. Afterwards media was replaced, washed with PBS buffer for three times and each well was treated with 100 μL 10% alamarBlue in media with serum. Finally, samples were incubated for 1 h and subjected to fluorescence measurement with SpectraMax® M5 at 560 nm excitation/590 nm emission wavelength in a black 96-well flat bottomed plate. Cellular viability of the small molecule byproducts were assessed using a similar protocol.

[2] = Release kinetics of proteins from nanoassemblies (DTT, SDS-PAGE); conditions: reducing conditions (DTT)
Procedure: 30 μL of different samples containing NA-Empty^ED, NA-Empty^PEG, NA-Lys^ED, NA-Lys^PEG, NA-RNaseA^ED, NA-RNaseA^PEG, NA-CytC^ED and NA-CytC^PEG were mixed with 10 μL of loading buffer (DTT free) and 25 μL of each sample was loaded on acrylamide gel. For release experiment, identical protein-polymer conjugate samples were treated with 10 mM DTT and incubated at 37° C. for 4 h before subjecting to acrylamide gel electrophoresis. To calculate the amount of released protein from each sample, standard curves were generated from the known concentrations of pure protein samples loaded into the gel lanes. The gel image analysis and quantification were performed with Bio-Rad Image Lab™ software.
To monitor the release kinetics of proteins (lysozyme, RNase A and cytochrome C), 30 μL of NA-Lys^ED, NA-Lys^PEG, NA-RNaseA^ED, NA-RNaseA^PEG, NA-CytC^ED and NA-CytC^PEG samples were incubated at 37° C. with requisite amounts of 10 mM DTT for different time intervals. After each incubation time, samples were collected and immediately frozen at −20° C. Finally, all samples were subjected to SDS-PAGE analysis to quantify the amount of released proteins. Encapsulation and release studies with variations in DTT concentrations and crosslinker concentrations were carried out using similar experimental protocols.

[3] = Crosslinking density from released 4-nitrophenol (UV-Vis, 400 nm); format: physicochemical; conditions: adjusted for ~1% hydrolysis of control polymer
Procedure: The conjugation process and cross-linking density for the protein-polymer conjugates can be evaluated by UV-Vis spectroscopy. The amount of released 4-nitrophenol was monitored at its λmax 400 nm (measured molar extinction co-efficient≈12.14*10^3 L M^−1 cm^−1 at 400 nm). For each absorbance measurement, samples were diluted to twenty times, for e.g. 50 μL of sample was diluted 1 mL with distilled water. Cross-linking density was calculated by assuming that formation of a single chain crosslinking bond would require cleavage of two NPC units and produce two 4-nitrophenol molecules.
Ratio of NPC:PEG in the polymer, P1=50:50
Molecular weight of repeating NPC-unit=387 g/mol
Amount of polymer used=0.1 mg/mL for each absorbance measurement
From Beer-lamber's law: A=ε.c.1 and path-length=1 cm
Thus, moles of 4-nitro phenol in 1 mL solution=3.04*10^−8
This represents is 23.5 mol % of total NPC unit. As it is assumed that two 4-nitro phenol are released per crosslinking bond formation and NPC unit is 50 mol % of total polymer. Therefore, crosslinking density=23.5/2*0.5=5.9%
Hydrolysis from control polymer sample contributes ˜1% towards cross-linking density and adjusted for all calculations. Crosslinking densities for all other conjugates were calculated based on the above method and summarized below: […]

[4] = Encapsulation efficacy and loading capacity (Pierce 660 nm Protein Assay of filtrate); format: physicochemical; conditions: for Amount of protein encapsulated, μg (Initial dose = 1 mg): 10 mg P1, 1 mg protein, back-calculated from filtrate
Procedure: All nanoassemblies were evaluated for amount of protein encapsulation after conjugation and cross-linking process. Protein concentration in each sample was measured from the filtrate after crosslinking reaction and the amount of protein was back-calculated in the conjugate. An absorbance based assay (with Pierce™ 660 nm Protein Assay Reagent) was utilized to quantify the protein amount. The encapsulation efficiency (EE) and loading capacity (LC) were calculated based on the following formulas: […]

[5] = Zeta potential measurement; format: physicochemical; conditions: 1 mg/mL, phosphate buffer pH 7.4
Procedure: as §1

[6] = Calculation of number of proteins per particle; format: physicochemical; conditions: from DLS diameters, sphere packing efficiency ~74%
Excerpt: Calculation of Number of Proteins Per Particle: Example for NA-Lys^ED: Diameter of nanoassembly, D=9.7 nm, radius, R=4.85 nm Volume of each particle, VPPC=(4/3)πR^3=(4/3) π(4.85)^3 nm^3=477.6×10^−21 cm^3 Again, for lysozyme, diameter of protein, d=3.6 nm, radius, r=1.8 nm Volume of each protein, VLy=(4/3)πr^3=(4/3) π(1.8)^3 nm^3=24.4×10^−21 cm^3 Assuming that maximum sphere packing efficiency to be ˜74%,^ii number of lysozyme per nanoassembly to be=(477.6×10^−21/24.4×10^−21)×(0.74)=14 The results for all other nanoassemblies are summarized below: […]

**Q.** With cytochrome C as the molecule, how does the “Size, nm (hydrodynamic diameter, DLS)” value [1] read?
**A.** 4.3 ± 0.1 nm

**Q.** And the “Size, nm (hydrodynamic diameter, DLS)” value ([1]; listed as native CytC)?
**A.** ~4 nm

**Q.** What about the Cell viability (HeLa cells) of the same molecule?
**A.** lack of toxicity

**Q.** And the “Order of overall kinetics of protein release” value [2]?
**A.** CytC<RNaseA<Lys

**Q.** What does the source list for lysozyme?
**A.** Size, nm (hydrodynamic diameter, DLS) [1]: 3.6 ± 0.4 nm; Order of overall kinetics of protein release [2]: CytC<RNaseA<Lys

B1: ribonuclease A (protein, UniProt P61823 27-150, looked up)
Ribonuclease pancreatic: KETAAAKFERQHMDSSTSAASSSNYCNQMMKSRNLTKDRCKPVNTFVHESLADVQAVCSQKNVACKNGQTNCYQSYSTMSITDCRETGSSKYPNCAYKTTQANKHIIVACEGNPYVPVHFDASV
notes: native protein from Sigma-Aldrich, model cargo
**Q.** Which “Size, nm (hydrodynamic diameter, DLS)” value [1] does the source give for B1 here?
**A.** 3.3 ± 0.2 nm

**Q.** What about the “Order of overall kinetics of protein release” value [2] of the same molecule?
**A.** CytC<RNaseA<Lys

B2: NA-RNaseA^ED: RNase A conjugated to polymer P1 and crosslinked with ethylenediamine; nanoassembly (conjugate, UniProt P61823 27-150, looked up)
Ribonuclease pancreatic: B1 Ribonuclease pancreatic
modifications: polymer P1 conjugate, ethylenediamine-crosslinked nanoassembly
**Q.** Which “Crosslinking density, %” value [3] does the source give for B2 here?
**A.** 5.1%

**Q.** What about the “Loading capacity (LC), %” value [4] of the same molecule?
**A.** 5.6%

**Q.** What about the “Amount of protein encapsulated, μg (Initial dose = 1 mg)” value [4] of the same molecule?
**A.** 558 µg

**Q.** And the “Size, nm (hydrodynamic diameter, DLS)” value [1]?
**A.** 9.1 ± 0.1 nm

**Q.** What about the “Zeta potential, mV” value [5] of the same molecule?
**A.** −8.2 ± 0.7 mV

**Q.** What about the “# of Protein per PPC particle” value [6] of the same molecule?
**A.** 16

B3: NA-RNaseA^PEG: RNase A conjugated to polymer P1 and crosslinked with (PEO)4-bis-amine; nanoassembly (conjugate, UniProt P61823 27-150, looked up)
Ribonuclease pancreatic: B1 Ribonuclease pancreatic
modifications: polymer P1 conjugate, PEO4-bis-amine crosslinked nanoassembly
notes: RNase A conjugated to polymer P1 and crosslinked with (PEO)4-bis-amine; nanoassembly
**Q.** Which “Crosslinking density, %” value [3] does the source give for B3 here?
**A.** 5.1%

**Q.** What about the “Loading capacity (LC), %” value [4] of the same molecule?
**A.** 5.5%

**Q.** And the “Amount of protein encapsulated, μg (Initial dose = 1 mg)” value [4]?
**A.** 553 µg

**Q.** And the “Size, nm (hydrodynamic diameter, DLS)” value [1]?
**A.** 9.5 ± 0.1 nm

**Q.** What about the “Zeta potential, mV” value [5] of the same molecule?
**A.** −8.7 ± 0.7 mV

**Q.** And the “# of Protein per PPC particle” value [6]?
**A.** 18
